Molecular target: T1, human PAR1 (AA #27-102)/thioredoxin fusion protein (UniProt P25116)
T1 sequence: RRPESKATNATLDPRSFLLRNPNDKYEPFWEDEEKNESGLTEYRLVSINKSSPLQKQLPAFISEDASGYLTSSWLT

Substance: thrombin
- proteolytic cleavage: The PAR1/thioredoxin was cleaved to completion with thrombin

— patent US20080044424
